What all share (experiment): radiolabeled ligand binding assay on stably transfected BHK cells
For assay [1], the target named is T1, IL-20RA/IL-20RB heterodimeric receptor (on cells) (human, UniProt Q9UHF4 30-553; Q6UXL0 30-311).
T1 construct: Both subunits are on the same cell (COS, BHK or BaF3 transfectants, or HaCaT endogenously); also called IL-20 receptor; ZcytoR7/pDIRS1
T1 sequence 1: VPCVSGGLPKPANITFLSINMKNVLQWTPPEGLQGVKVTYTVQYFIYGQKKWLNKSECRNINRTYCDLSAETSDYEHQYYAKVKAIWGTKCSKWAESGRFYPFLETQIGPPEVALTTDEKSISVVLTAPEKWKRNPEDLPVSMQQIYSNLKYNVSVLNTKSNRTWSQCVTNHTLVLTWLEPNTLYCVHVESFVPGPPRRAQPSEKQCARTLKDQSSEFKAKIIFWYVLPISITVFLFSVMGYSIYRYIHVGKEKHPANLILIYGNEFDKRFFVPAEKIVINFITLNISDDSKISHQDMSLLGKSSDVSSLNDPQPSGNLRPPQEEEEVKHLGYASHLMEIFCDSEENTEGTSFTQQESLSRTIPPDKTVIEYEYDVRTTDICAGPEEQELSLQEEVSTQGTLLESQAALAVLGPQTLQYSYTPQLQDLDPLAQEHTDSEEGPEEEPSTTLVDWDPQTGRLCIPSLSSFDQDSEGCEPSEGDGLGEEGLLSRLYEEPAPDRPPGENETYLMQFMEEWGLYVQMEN
T1 sequence 2: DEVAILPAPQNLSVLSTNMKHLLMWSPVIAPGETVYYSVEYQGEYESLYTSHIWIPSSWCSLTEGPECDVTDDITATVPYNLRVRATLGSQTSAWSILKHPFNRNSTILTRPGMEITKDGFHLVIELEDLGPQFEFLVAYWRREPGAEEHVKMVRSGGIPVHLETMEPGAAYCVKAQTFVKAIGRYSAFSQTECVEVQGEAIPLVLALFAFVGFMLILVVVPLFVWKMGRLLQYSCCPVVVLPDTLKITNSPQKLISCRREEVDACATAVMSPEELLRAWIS
How it is done:
(§1) The specificity and affinity of IL-20 for its receptor was determined using BHK cells stably transfected with IL-20RA, IL-20RB or both receptor subunits. […] Binding of ¹²⁵I-labeled IL-20 was eliminated in the presence of 100-fold excess of unlabeled IL-20 but not with 100-fold excess of the unrelated cytokine, IL-21.

Assay [2] deals with T2, IL-20RA (full-length, on cells, without transfected IL-20RB) (human, UniProt Q9UHF4 30-553).
T2 construct: Also used as the target of the anti-IL-20RA antibody on human lung tissue, the positive control 'known with IL-20RA expression'; also called ZcytoR7; BaF3/KZ134/IL-20RA only cells
T2 sequence: T1 sequence 1
How it is done:
as §1

Assay [3] has as its target T3, IL-20RB (full-length, on cells, without transfected IL-20RA) (human, UniProt Q6UXL0 30-311).
T3 construct: also called DIRS1; pDIRS1
T3 sequence: T1 sequence 2
How it is done: as §1

B1: IL-20 (ligand)
chain: LKTLNLGSCVIATNLQEIRNGFSDIRGSVQAKDGNIDIRILRRTESLQDTKPANRCCLLRHLLRLYLDRVFKNYQTPDHYTLRKISSLANSFLTIKKDLRLCHAHMTCHCGEEAMKKYSQILSHFEKLEPQAAVVKALGELDILLQWMEETE
modifications: biotin label in Example 6; 125I label in Example 10
notes: also called Zcyto10; biotinylated IL-20 protein
In assay [1], B1 came in with a dissociation constant (Kd) of about 1.5 nM. The binding result in assay [2] and in assay [3] was “no binding” throughout.

(Values after patent US20050170468A1 (published 2005).)
